Data as given in PMC7763939.

What was measured:
[1] = molecular target: PKSIII Mo29 Std (type III polyketide synthase of Naganishia uzbekistanensis strain Mo29, whole protein with the C-terminus extension) (Naganishia uzbekistanensis strain Mo29 (UBOCC-A-208024)); assay: SEC + other: dynamic light scattering; Sephacryl-200 gel filtration column, 50 mM Tris-HCl pH 7.5, 200 mM NaCl, size calculated with marker; DLS on a DynaPro-801; monomer to dimer
[2] = molecular target: PKSIII Mo29 Red (truncated/reduced type III polyketide synthase of Naganishia uzbekistanensis strain Mo29, without the 74 aa C-terminus extension) (Naganishia uzbekistanensis strain Mo29 (UBOCC-A-208024)); assay: as above

Row | stoichiometry N [1] | stoichiometry N [2] | Substance
1 | 2 | – | PKSIII Mo29 Std (type III polyketide synthase of Naganishia uzbekistanensis strain Mo29, whole protein with the C-terminus extension) (enzyme)
2 | – | 2 | PKSIII Mo29 Red (truncated/reduced type III polyketide synthase of Naganishia uzbekistanensis strain Mo29, without the 74 aa C-terminus extension) (domain or fragment)
